Measurements published in patent US20230406885A1, “CYCLIC PEPTIDES FOR TRAPPING INTERLEUKIN-1 BETA” (MERCK SHARP & DOHME LLC, priority 2022, published 2023).
*1 amine or outer side, *2 acyl side, *3 side chain or, on linkers, in order; H or OH if unused. [ ]: non-standard residue; d: D form. F4bcpA = 3-[4-[(S)-2-amino-2-carboxyethyl]phenyl]bicyclo[1.1.1]pentane-1-carboxylic acid, O=C([C@H](Cc1ccc(C23CC(C(=O)[*:3])(C2)C3)cc1)N[*:1])[*:2]; 3AzaPhe4AcPip = (S)-3-(6-(4-acetylpiperazin-1-yl)pyridin-3-yl)-2-aminopropanoic acid, CC(=O)N1CCN(c2ccc(C[C@H](N[*:1])C(=O)[*:2])cn2)CC1; dDabMe3 = [(R)-3-amino-3-carboxypropyl]-trimethylazanium, C[N+](C)(C)CC[C@@H](N[*:1])C(=O)[*:2]; F4pcCCA = (1R,4s)-4-(4-((S)-2-amino-2-carboxyethyl)phenyl)cyclohexane-1-carboxylic acid; Phe(4-(trans-4-COOH-cHex)) = N[C@@H](Cc1ccc([C@H]2CC[C@H](C(=O)O)CC2)cc1)C(=O)O; Pro(trans-4-NH2) = O=C([C@@H]1C[C@@H](N[*:3])CN1[*:1])[*:2]; Trp(βS-Me,4-F) = C[C@@H](c1c[nH]c2cccc(F)c12)[C@H](N)C(=O)O; Bip(4'-COOH) = N[C@@H](Cc1ccc(-c2ccc(C(=O)O)cc2)cc1)C(=O)O; 1Nal(3S-Me) = C[C@@H](c1cccc2ccccc12)[C@H](N)C(=O)O; Ala(indazol-1-yl) = N[C@@H](Cn1ncc2ccccc21)C(=O)O; Phe(4-COOH) = N[C@@H](Cc1ccc(C(=O)O)cc1)C(=O)O; Trp(6-F) = N[C@@H](Cc1c[nH]c2cc(F)ccc12)C(=O)O; Trp(7-Me) = Cc1cccc2c(C[C@H](N)C(=O)O)c[nH]c12; h3Pal(5-CN) = N#Cc1cncc(CC[C@H](N)C(=O)O)c1; αMeNle = CCCC[C@](C)(N[*:1])C(=O)[*:2]; hTyr = N[C@@H](CCc1ccc(O)cc1)C(=O)O; hCha = N[C@@H](CCC1CCCCC1)C(=O)O; 4Pal = N[C@@H](Cc1ccncc1)C(=O)O; Cha = N[C@@H](CC1CCCCC1)C(=O)O; dDab = NCC[C@@H](N)C(=O)O; Orn = NCCC[C@H](N)C(=O)O; dNMeA = CN[C@H](C)C(=O)O

B1: SEQ ID NO: 188 (Example No. 188) (peptide)
peptide: cyclo([F4bcpA]W[Phe(4-COOH)]G[Pro(trans-4-NH2)][1Nal(3S-Me)]D[dNMeA]G[Bip(4'-COOH)][Ala(indazol-1-yl)]G[dDab][hCha])
SMILES: C[C@@H]1C(=O)NCC(=O)N[C@@H](Cc2ccc(-c3ccc(C(=O)O)cc3)cc2)C(=O)N[C@@H](Cn2ncc3ccccc32)C(=O)NCC(=O)N[C@H](CCN)C(=O)N[C@@H](CCC2CCCCC2)C(=O)N[C@@H](Cc2ccc(C34CC(C(=O)O)(C3)C4)cc2)C(=O)N[C@@H](Cc2c[nH]c3ccccc23)C(=O)N[C@@H](Cc2ccc(C(=O)O)cc2)C(=O)NCC(=O)N2C[C@H](N)C[C@H]2C(=O)N[C@@H]([C@@H](C)c2cccc3ccccc23)C(=O)N[C@@H](CC(=O)O)C(=O)N1C
B2: SEQ ID NO: 189 (Example No. 189) (peptide)
peptide: cyclo([F4bcpA]W[Phe(4-COOH)]G[Pro(trans-4-NH2)][1Nal(3S-Me)]D[dNMeA]G[Bip(4'-COOH)][Cha]G[dDab][hCha])
SMILES: C[C@@H]1C(=O)NCC(=O)N[C@@H](Cc2ccc(-c3ccc(C(=O)O)cc3)cc2)C(=O)N[C@@H](CC2CCCCC2)C(=O)NCC(=O)N[C@H](CCN)C(=O)N[C@@H](CCC2CCCCC2)C(=O)N[C@@H](Cc2ccc(C34CC(C(=O)O)(C3)C4)cc2)C(=O)N[C@@H](Cc2c[nH]c3ccccc23)C(=O)N[C@@H](Cc2ccc(C(=O)O)cc2)C(=O)NCC(=O)N2C[C@H](N)C[C@H]2C(=O)N[C@@H]([C@@H](C)c2cccc3ccccc23)C(=O)N[C@@H](CC(=O)O)C(=O)N1C
B3: SEQ ID NO: 191 (Example No. 191) (peptide)
peptide: cyclo([F4pcCCA]W[Phe(4-COOH)]G[Pro(trans-4-NH2)][1Nal(3S-Me)]D[dNMeA]G[Bip(4'-COOH)][4Pal]G[dDab][hCha])
B4: SEQ ID NO: 182 (Example No. 182) (peptide)
peptide: cyclo([3AzaPhe4AcPip]W[Phe(4-COOH)]G[Pro(trans-4-NH2)][1Nal(3S-Me)]D[dNMeA]G[Bip(4'-COOH)][Orn]L[dA][hCha])
SMILES: CC(=O)N1CCN(c2ccc(C[C@@H]3NC(=O)[C@H](CCC4CCCCC4)NC(=O)[C@@H](C)NC(=O)[C@H](CC(C)C)NC(=O)[C@H](CCCN)NC(=O)[C@H](Cc4ccc(-c5ccc(C(=O)O)cc5)cc4)NC(=O)CNC(=O)[C@@H](C)N(C)C(=O)[C@H](CC(=O)O)NC(=O)[C@H]([C@@H](C)c4cccc5ccccc45)NC(=O)[C@@H]4C[C@@H](N)CN4C(=O)CNC(=O)[C@H](Cc4ccc(C(=O)O)cc4)NC(=O)[C@H](Cc4c[nH]c5ccccc45)NC3=O)cn2)CC1
B5: SEQ ID NO: 195 (Example No. 195) (peptide)
peptide: cyclo([Phe(4-(trans-4-COOH-cHex))]W[Phe(4-COOH)]G[Pro(trans-4-NH2)][1Nal(3S-Me)]D[dNMeA]G[Bip(4'-COOH)][4Pal]G[dDab][αMeNle])
SMILES: CCCC[C@]1(C)NC(=O)[C@@H](CCN)NC(=O)CNC(=O)[C@H](Cc2ccncc2)NC(=O)[C@H](Cc2ccc(-c3ccc(C(=O)O)cc3)cc2)NC(=O)CNC(=O)[C@@H](C)N(C)C(=O)[C@H](CC(=O)O)NC(=O)[C@H]([C@@H](C)c2cccc3ccccc23)NC(=O)[C@@H]2C[C@@H](N)CN2C(=O)CNC(=O)[C@H](Cc2ccc(C(=O)O)cc2)NC(=O)[C@H](Cc2c[nH]c3ccccc23)NC(=O)[C@H](Cc2ccc([C@H]3CC[C@H](C(=O)O)CC3)cc2)NC1=O
B6: SEQ ID NO: 194 (Example No. 194) (peptide)
peptide: cyclo([Phe(4-(trans-4-COOH-cHex))][Trp(6-F)][Phe(4-COOH)]G[Pro(trans-4-NH2)][1Nal(3S-Me)]D[dNMeA]G[Bip(4'-COOH)][4Pal]S[dDabMe3][hCha])
SMILES: C[C@@H]1C(=O)NCC(=O)N[C@@H](Cc2ccc(-c3ccc(C(=O)O)cc3)cc2)C(=O)N[C@@H](Cc2ccncc2)C(=O)N[C@@H](CO)C(=O)N[C@H](CC[N+](C)(C)C)C(=O)N[C@@H](CCC2CCCCC2)C(=O)N[C@@H](Cc2ccc([C@H]3CC[C@H](C(=O)O)CC3)cc2)C(=O)N[C@@H](Cc2c[nH]c3cc(F)ccc23)C(=O)N[C@@H](Cc2ccc(C(=O)O)cc2)C(=O)NCC(=O)N2C[C@H](N)C[C@H]2C(=O)N[C@@H]([C@@H](C)c2cccc3ccccc23)C(=O)N[C@@H](CC(=O)O)C(=O)N1C
B7: SEQ ID NO: 183 (Example No. 183) (peptide)
peptide: cyclo([3AzaPhe4AcPip]W[Phe(4-COOH)]G[Pro(trans-4-NH2)][1Nal(3S-Me)]D[dNMeA]G[Bip(4'-COOH)]QL[dA][h3Pal(5-CN)])
SMILES: CC(=O)N1CCN(c2ccc(C[C@@H]3NC(=O)[C@H](CCc4cncc(C#N)c4)NC(=O)[C@@H](C)NC(=O)[C@H](CC(C)C)NC(=O)[C@H](CCC(N)=O)NC(=O)[C@H](Cc4ccc(-c5ccc(C(=O)O)cc5)cc4)NC(=O)CNC(=O)[C@@H](C)N(C)C(=O)[C@H](CC(=O)O)NC(=O)[C@H]([C@@H](C)c4cccc5ccccc45)NC(=O)[C@@H]4C[C@@H](N)CN4C(=O)CNC(=O)[C@H](Cc4ccc(C(=O)O)cc4)NC(=O)[C@H](Cc4c[nH]c5ccccc45)NC3=O)cn2)CC1
B8: SEQ ID NO: 186 (Example No. 186) (peptide)
peptide: cyclo([Bip(4'-COOH)][Trp(7-Me)][Phe(4-COOH)]G[Pro(trans-4-NH2)][Trp(βS-Me,4-F)]D[dNMeA]G[Bip(4'-COOH)]KL[dA][hTyr])
SMILES: Cc1cccc2c(C[C@@H]3NC(=O)[C@H](Cc4ccc(-c5ccc(C(=O)O)cc5)cc4)NC(=O)[C@H](CCc4ccc(O)cc4)NC(=O)[C@@H](C)NC(=O)[C@H](CC(C)C)NC(=O)[C@H](CCCCN)NC(=O)[C@H](Cc4ccc(-c5ccc(C(=O)O)cc5)cc4)NC(=O)CNC(=O)[C@@H](C)N(C)C(=O)[C@H](CC(=O)O)NC(=O)[C@H]([C@@H](C)c4c[nH]c5cccc(F)c45)NC(=O)[C@@H]4C[C@@H](N)CN4C(=O)CNC(=O)[C@H](Cc4ccc(C(=O)O)cc4)NC3=O)c[nH]c12
B9: SEQ ID NO: 193 (Example No. 193) (peptide)
peptide: cyclo([Phe(4-(trans-4-COOH-cHex))][Trp(6-F)][Phe(4-COOH)]G[Pro(trans-4-NH2)][1Nal(3S-Me)]D[dNMeA]G[Bip(4'-COOH)][4Pal]S[dDab][hCha])
SMILES: C[C@@H]1C(=O)NCC(=O)N[C@@H](Cc2ccc(-c3ccc(C(=O)O)cc3)cc2)C(=O)N[C@@H](Cc2ccncc2)C(=O)N[C@@H](CO)C(=O)N[C@H](CCN)C(=O)N[C@@H](CCC2CCCCC2)C(=O)N[C@@H](Cc2ccc([C@H]3CC[C@H](C(=O)O)CC3)cc2)C(=O)N[C@@H](Cc2c[nH]c3cc(F)ccc23)C(=O)N[C@@H](Cc2ccc(C(=O)O)cc2)C(=O)NCC(=O)N2C[C@H](N)C[C@H]2C(=O)N[C@@H]([C@@H](C)c2cccc3ccccc23)C(=O)N[C@@H](CC(=O)O)C(=O)N1C
B10: SEQ ID NO: 192 (Example No. 192) (peptide)
peptide: cyclo([Phe(4-(trans-4-COOH-cHex))][Trp(6-F)][Phe(4-COOH)]G[Pro(trans-4-NH2)][1Nal(3S-Me)]D[dNMeA]G[Bip(4'-COOH)][4Pal]G[dDab][hCha])
SMILES: C[C@@H]1C(=O)NCC(=O)N[C@@H](Cc2ccc(-c3ccc(C(=O)O)cc3)cc2)C(=O)N[C@@H](Cc2ccncc2)C(=O)NCC(=O)N[C@H](CCN)C(=O)N[C@@H](CCC2CCCCC2)C(=O)N[C@@H](Cc2ccc([C@H]3CC[C@H](C(=O)O)CC3)cc2)C(=O)N[C@@H](Cc2c[nH]c3cc(F)ccc23)C(=O)N[C@@H](Cc2ccc(C(=O)O)cc2)C(=O)NCC(=O)N2C[C@H](N)C[C@H]2C(=O)N[C@@H]([C@@H](C)c2cccc3ccccc23)C(=O)N[C@@H](CC(=O)O)C(=O)N1C
B11: SEQ ID NO: 187 (Example No. 187) (peptide)
peptide: cyclo([Bip(4'-COOH)]W[Phe(4-COOH)]G[Pro(trans-4-NH2)][Trp(βS-Me,4-F)]D[dNMeA]G[Bip(4'-COOH)]KL[dK](Ac)[hTyr])
SMILES: CC(=O)NCCCC[C@H]1NC(=O)[C@H](CC(C)C)NC(=O)[C@H](CCCCN)NC(=O)[C@H](Cc2ccc(-c3ccc(C(=O)O)cc3)cc2)NC(=O)CNC(=O)[C@@H](C)N(C)C(=O)[C@H](CC(=O)O)NC(=O)[C@H]([C@@H](C)c2c[nH]c3cccc(F)c23)NC(=O)[C@@H]2C[C@@H](N)CN2C(=O)CNC(=O)[C@H](Cc2ccc(C(=O)O)cc2)NC(=O)[C@H](Cc2c[nH]c3ccccc23)NC(=O)[C@H](Cc2ccc(-c3ccc(C(=O)O)cc3)cc2)NC(=O)[C@H](CCc2ccc(O)cc2)NC1=O
B12: SEQ ID NO: 190 (Example No. 190) (peptide)
peptide: cyclo([F4bcpA]W[Phe(4-COOH)]G[Pro(trans-4-NH2)][1Nal(3S-Me)]D[dNMeA]G[Bip(4'-COOH)][Cha]G[dDab][hTyr])
SMILES: C[C@@H]1C(=O)NCC(=O)N[C@@H](Cc2ccc(-c3ccc(C(=O)O)cc3)cc2)C(=O)N[C@@H](CC2CCCCC2)C(=O)NCC(=O)N[C@H](CCN)C(=O)N[C@@H](CCc2ccc(O)cc2)C(=O)N[C@@H](Cc2ccc(C34CC(C(=O)O)(C3)C4)cc2)C(=O)N[C@@H](Cc2c[nH]c3ccccc23)C(=O)N[C@@H](Cc2ccc(C(=O)O)cc2)C(=O)NCC(=O)N2C[C@H](N)C[C@H]2C(=O)N[C@@H]([C@@H](C)c2cccc3ccccc23)C(=O)N[C@@H](CC(=O)O)C(=O)N1C
B13: SEQ ID NO: 184 (Example No. 184) (peptide)
peptide: cyclo([Bip(4'-COOH)][Trp6Cl][Phe(4-COOH)]G[Pro(trans-4-NH2)][Trp(βS-Me,4-F)]D[dNMeA]G[Bip(4'-COOH)]KL[dA][hTyr])
B14: SEQ ID NO: 185 (Example No. 185) (peptide)
peptide: cyclo([Bip(4'-COOH)][Trp7F][Phe(4-COOH)]G[Pro(trans-4-NH2)][Trp(βS-Me,4-F)]D[dNMeA]G[Bip(4'-COOH)]KL[dA][hTyr])

What follows are binders tested against Recombinant human IL-1β (BioLegend 579404) (human, UniProt P01584 117-269) (assay: cell-based or functional assay).

B1 and B2 are within 1.5-fold of each other in “MRC5 IC50” value: 0.016 nM for the first, 0.019 nM for the second.

B3 and B4 are within 1.5-fold of each other in “MRC5 IC50” value: 0.019 nM for the first, 0.013 nM for the second.

B5 and B6 are within 1.5-fold of each other in “MRC5 IC50” value: 0.022 nM for the first, 0.015 nM for the second.

Going from B7 to B8, the “MRC5 IC50” value rises from 0.013 nM to 0.038 nM (2.9-fold).

B9 and B10 are within 1.5-fold of each other in “MRC5 IC50” value: 0.012 nM for the first, 0.015 nM for the second.

Compared with B11, B12 is 2-fold higher in “MRC5 IC50” value: 0.009 nM for the first, 0.018 nM for the second.

B13 and B14 are within 1.5-fold of each other in “MRC5 IC50” value: 0.018 nM for the first, 0.024 nM for the second.
